This note sets out measurements from a protein production outcome set (Wang et al. 2014).
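Note: failed if final PepcDB status was selected cloned or expressed and not failed if soluble or beyond.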

The nature of this data set: label from the status in PepcDB records.
As to “MSLIAIVLVFIMAIVVTVFLSHLLPVKVPLPLIQIAAGAALAASGFQVDFDPHIFLLLFIPPLLFLDGWRIPKDAFFRDMKPILSLAIGLVMVTILGIGLFIHWLIPAITVAAGFALAAILSPTDPVAVSAMTASSPLPSRMAHILEGESLLNDASGLVAFNFAIAAVLTGSFSPGDAVVKFFLMAFGGILSGLVVVWVTGKCNNFLVRRTREEPAIQILISLLIPFAAYLLAEAFHVSGILAAVAAGIAMHYEQLSGPRLPATRMKSSAVWSMLQTTLNGMIFLMLGEQLPRMLRTLPAVASQAGVSSPWYLLLYAVAITLALGLMRFAWVWLSMKLTIFRRKRRGKAITVRPRFSILAVMALAGVKGSVTLAGILTLPVVLADGSPFPGRELLIFLSMAVILMSLVVAAIGLPFMTRYLADDLPHDTGKDDIGAVMTEVAINRLNALLDEPVEDPSEQALRADAGNMLLETYQRRLHYNDNDEGQDVGLELAKRARLEKYMQREVIIAQRQELFRLRRAHNISDITFYEVLREIDLKEESLR”, the protein production entry is recorded as “failed”.
As to “MIAGFDAKLVASADTPLTIGNVPSGMEALLLADMARAGTSVAYVMSDGQRVADLEQILGFVAPDIPVLTLPAWDCLPYDRVSPSADTSARRLAALAGLINHAKKPHPAVVLVTVNAMLQKMAPRDVIESLGFSARPGNQIRMEDIAARLERNGFDRVATVREVGEFAVRGGILDVFVPGTEEPVRLDFFGDTLESIRTFDPASQRTIAQARSLDLNPMSEVTLTPDTIGRFRKNYLSLFGAATRDDALYQAVSEGRRYAGMEHWLPLFYEQLETAFDYLKGFRIVTDHTAKEAAKERSKLVLDYYEARRASGETKGSTQGAPYKPVSPGQIYLDGKSFEAALASVNAVRLTPFNEHDSEGRPVATLDAHVGPRWARPPTEGDSEERVNVFDLAVKHIAERRAKGWKVLITGWSEGSLDRLLQVLNEHGLEKIKPVTSLKEVKKLGKGEAACAVLSLEAGFETGTLAVIGEQDILGDRMVRRSKRRKRGADFIAEVAGLDEGSLVVHAEHGIGRFVGLQTIEAAGAPRACLELHYADDAKLFLPVENIDLLSRYGSDAAEATLDKLGGGAWQMRKAKLKKRLLDMADELIRIAAARLVRHAPALIAPDGLYDEFAARFPYDETEDQLNAIEAVRDDLGAGRPMDRLICGDVGFGKTEVALRAAFLAAMNGVQVAVVVPTTLLARQHFRTFSERFRGLPIRVQQASRLVGSKELALTKKEVAEGKTDIVVGTHALLGAGISFANLGLLIIDEEQHFGVKHKERLKELKSDVHVLTLSATPIPRTLQLAMTGVRELSLITTPPVDRMAVRTFISPFDPLVIRETLMREHYRGGQSFYVCPRLADLADIHAFLQSDVPELKVAVAHGQMAAGELEDIMNAFYDGKYDVLLSTTIVESGLDVPTANTLIVHRADMFGLAQLYQLRGRVGRSKVRAFALFTLPVNKVLTTMAERRLKVLQSLDTLGAGFQLASHDLDIRGAGNLLGEEQSGHIKEVGFELYQQMLEEAVAEVKGDEEVRDSGWSPQISVGTSVMIPEDYVPDLHLRMGLYRRLGELADISEIDGFGAEMIDRFGPLPKEVQHLLKIVYIKSLCRTANVEKVDAGPKGVVVQFRNKEFPNPAALVGYIGKQGSMAKIRPDHSLFLNRDLPTPEKRLTGAAMVMTQLAELARS”, the protein production entry is recorded as “failed”.
Under “MDLQGSVIKLQAAEAAGCKSPGRLLIIYLRPDAPRPQACASSVPAAMNRFKASKFRHMEARPSRREAWISDIRAGTTATCGNHIKSSCSLIAFNSDRPGVLGIISLEGHEENKRHVTYLGCHSDLVTDLDFSPFDDFLLASGSADRTIKLWRLSSTGEALPSVPGVVLGPEELPVDVLQFHPTADGVLVSTAGRTVKVWDVAKQQHLTELEAHKDLVQSAVWSRDGATVGTACKDKQLRIFDPRARAQASQSTQAHENNRDIRLAWTGIQEYLVSTGFNQMREREAKLWDTRVFSSALASITLDTSPGSLIPLLDPDSGLLVLAGKGENQLYCYEVTPQQPALSPVTQCILENALRGAALVPRQALAVMNCEVLQVLQLSDTAIIPISHRVPRKAVEFHEDLFPDTAGSVPASDAHTWWAGDNQQVQKVSLNPAHRPHPRFTSSLLPTLEPSPNMEQPAELPRADTELSEGFSSPSSLVSPSTPSSLGLSLSSTSGIGTSPSQRSLQSLLGPSSKFRHAEGTILHRDSHITNLKGLNLTTPGESDGFCANRLRVAVPLLSSGGQVAVLELQKPGRLPDTALPTLQNGAAVMDLVWDPFDPHRLAVAGEDARIRLWRVPPGGLKNVLTTPETVLTGHTEKIYSLRFHPLAADVLASSSYDLTIRIWDLQAGTEQLRLQGHQDQIFSLAWSPDGKQLATVCKDGRVRVYDPRSSPLPLQDGPGPEGGRGARIVWVCNGGCLLVSGFDSRSERQLQLYMADALAEGPSALLGLDVAPSTLLPSYDPDTGLVLLTGKGDTRVFLYEVIPEAPFFLECNSFTSPDPHKGFILLPKTECDIQDVEFARCLRLRQTSLEPVAFRLPRVRKEFFQDDVFPDTAVTWASALDAKAWFKGANGQPRLLSLQPPGMTPVSQAPREVPARRTPSSAQYLEEKSDQQKKEELLNAMVAKLGNREDPLPQDSFEGVDEDEWD” stands “failed”.
“TLDPSAQAIAEAALARGVQAHQGQYGAVIMLETRTGRILAAATYPPFDPGNWRGKPDTQERVKNRAFLDAYEPGSTMKALTIAAALNDGITTPDTVYETPMSRHVGGRWGHTIGDAVDHPSSLTTQQVLRYSSNVGMSHIVEGFTYQKLRDYLAAYGFGQPVNLTGAVTAQGILKPIDKWNDLERATNSFGQGVSGTTLQVAAAYNAVANDGLYVTPRLIEGAPAGERHEVVRAASARTVREMLKAIVVEGKFASLEGYDLSGKTGTAQVATENGYSNSVYKSTYAGFFPSDTPRVTVAVMVHGAQGEHHGSQVAAPIFREIASGMLSEWGTAPE”: the protein production result is listed as “failed”.
As for “MLAERRPAVTPTDGAQVLKALDAQAALLPYALGVFAVSLPLFVWVGSFAANPLWMTASFAIFAINWGVFYAAVSWIRDEPSQDLARRARVQVLCGVLWALAVMQISAFAHNAGPARETLLLLATAGAVLCAFFAAPYLPGLLIIAPLAAAGPLLAQFSSADSRHAGELTFGATALAMTLALILNRMFRRQHDLAISHEQLVVERLRVLEAAERTARSKSDIVATLSHEIRNGLTGVTHVLAAAAGRGGRAAPSREQLNAALDAAQDLIAVLNATLDSETAESGRLQVDARPFDPVRLVQDLALLDKPHAAAKGLELSVHVDPLLRERAKGAAIADALRTRQIVSNLLGNAVKYTVRGRVEVRLELRDDRIAIEVADTGPGLSTEELEQAFEPFRRVERTGAGVNGAGLGLSLSRQLARLMGGALEARSAVGVGSCFTLTLPFDLGAKDEQAEALDTAVAEASGAPRALRVLIAEDDALNAAMLRAVLEQLGHQVVHAANGRRAADLAKIAEFDLLMLDHRMPVMDGPEAASSLRQGDGPNRQTPIVAVIDGDAEEAAEFLEAGAEIVLRKPVSVAGVARALADAAALERTDPAKVAA”, the protein production entry is “failed”.
For “MQIRVYDEGAVQDCLFVLGWGNRCRHRTVQWLIDQLTTAYRVHAVELPTHITDYRREWVGPVQEYAADLGRFDLLGHSAGGLTAAHLDADGIGNRVYLSPWWDSDFPVPGPVLDAIASLPITKPFIPIDTLDADAIGDLATAQQLAEAPSSVSPAFLRTVFRAQRSLPPARDTAAAFCSLTDTVVDPRAVGERLPADRIRLYDGGHELFSSSGREDTAETVIDTLQHGPDAL”, the protein production entry is given as “failed”.
Take “MTFYDREAELDTLSDAVESPGADFVVVYGRRRVGKTELLKEFCANRPHIYFLAAQEAEHRQREKFLDQVADYFDERVPRIDGWDEAFEYLGEQLQREDLVVVIDEFPYLVAENDSLPSYVQGFVDQELDGTDSMIVLCGSSVSTMESEILGHESPLYGRRTAQLDVTPFSFQQAREVISYDIQDAIRSYAVTGGTPMYLTLFDYTQSLAANIQSHVLSPSAVLYNEPEFLLRTELRNPARYMSILEAVALGHTTPNEISGATGIDSGPLSKYLQTLRRLRLIERDVPVMASGKKSKRSRYRVADEFLRFWFRYVEPNRSSIEEAPEIVYDGTIEPDLPTHVATTFEDVCQEAVWEGIRRGTFDPYSEVGRWWYGEEEIDIVGLAPNDDRVLLAECKWTTDPVGEDLVESLRAKAEHVRWGPPDRDEQFALFSKSGFVDGLEAQLDDSWSLFTVADIDDLLTPS”: the protein production entry is “failed”.
